Measurements reported in patent US20240116985A1 (published 2024).
Starred links: 1 amine or outer side, 2 acyl side, 3 side chain; linkers in the order of their positions; H or OH if unused. Positions of bridges follow the written chain, without caps; N, C: chain ends. Non-standard residues stand in square brackets, D forms with d. Primed or numbered codes have the meaning given here. B5(4) = 2,2-bis(4-pentenyl)glycine = 2-amino-2-(pent-4-en-1-yl)hept-6-enoic acid (stitching residue), C=CCCCC(CCCC=C)(N[*:1])C(=O)[*:2]; PyrS2 = (S)-3-amino-1-((pent-4-en-1-yloxy)carbonyl)pyrrolidine-3-carboxylic acid, C=CCCCOC(=O)N1CC[C@@](N[*:1])(C(=O)[*:2])C1; B5(9) = 2-amino-2-(pent-4-en-1-yl)hept-6-enoic acid (2,2-bis(4-pentenyl)glycine), C=CCCCC(CCCC=C)(N[*:1])C(=O)[*:2]; B5(19) = 2-amino-2-(pent-4-en-1-yl)hept-6-enoic acid (bis(4-pentenyl)glycine), C=CCCCC(CCCC=C)(N[*:1])C(=O)[*:2]; 3Br4FF = (S)-2-amino-3-(3-bromo-4-fluorophenyl)propanoic acid, O=C([C@H](Cc1ccc(F)c(Br)c1)N[*:1])[*:2]; 7F1NapA = 3-(7-fluoronaphthalen-1-yl)-L-alanine, O=C([C@H](Cc1cccc2ccc(F)cc12)N[*:1])[*:2]; 23FF = 2,3-difluoro-L-phenylalanine, O=C([C@H](Cc1cccc(F)c1F)N[*:1])[*:2]; B5(28) = 2,2-bis(4-pentenyl)glycine, C=CCCCC(CCCC=C)(N[*:1])C(=O)[*:2]; Phe(3-CF3) = N[C@@H](Cc1cccc(C(F)(F)F)c1)C(=O)O; Phe(3-COOH) = N[C@@H](Cc1cccc(C(=O)O)c1)C(=O)O; Phe(2-CF3) = N[C@@H](Cc1ccccc1C(F)(F)F)C(=O)O; Phe(3,5-F2) = N[C@@H](Cc1cc(F)cc(F)c1)C(=O)O; Phe(3,4-Me2) = Cc1ccc(C[C@H](N)C(=O)O)cc1C; Phe(3-F) = N[C@@H](Cc1cccc(F)c1)C(=O)O; Bta = N[C@@H](Cc1csc2ccccc12)C(=O)O; αAllylPro = C=CC[C@@]1(C(=O)O)CCCN1; tBuAla = CC(C)(C)C[C@H](N)C(=O)O; 3Thi = N[C@@H](Cc1ccsc1)C(=O)O; S8 = C=CCCCCCC[C@](C)(N)C(=O)O

T1: B-cat-Halo (UniProt P35222 1-781)
T1 sequence (looked up): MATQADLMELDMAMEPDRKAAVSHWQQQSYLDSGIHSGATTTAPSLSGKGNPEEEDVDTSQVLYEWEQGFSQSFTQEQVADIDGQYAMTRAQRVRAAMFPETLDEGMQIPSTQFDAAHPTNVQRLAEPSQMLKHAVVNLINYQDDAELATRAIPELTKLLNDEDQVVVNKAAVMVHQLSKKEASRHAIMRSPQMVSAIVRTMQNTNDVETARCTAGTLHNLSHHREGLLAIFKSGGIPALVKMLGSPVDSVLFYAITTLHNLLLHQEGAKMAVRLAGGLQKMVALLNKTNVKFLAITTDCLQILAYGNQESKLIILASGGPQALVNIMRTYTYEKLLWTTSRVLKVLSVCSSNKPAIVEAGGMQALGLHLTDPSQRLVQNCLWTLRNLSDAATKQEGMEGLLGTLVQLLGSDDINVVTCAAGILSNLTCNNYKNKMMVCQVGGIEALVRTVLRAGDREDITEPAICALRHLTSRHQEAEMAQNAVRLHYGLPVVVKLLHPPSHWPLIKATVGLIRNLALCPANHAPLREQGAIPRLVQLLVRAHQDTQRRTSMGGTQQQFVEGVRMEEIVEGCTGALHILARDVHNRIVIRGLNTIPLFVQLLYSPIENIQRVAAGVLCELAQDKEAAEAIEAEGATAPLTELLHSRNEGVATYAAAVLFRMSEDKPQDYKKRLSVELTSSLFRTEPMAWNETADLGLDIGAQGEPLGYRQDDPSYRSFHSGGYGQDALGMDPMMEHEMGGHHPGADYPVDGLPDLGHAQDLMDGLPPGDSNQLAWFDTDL

T2: full-length beta-Catenin (Uniprot ID P35222) (Homo sapiens (Human), UniProt P35222 1-781)
T2 construct: also called bCat; B-Catenin
T2 sequence: T1 sequence (looked up)

B1: I-368 (peptide)
peptide: Ac-[αAllylPro]DA[B5(19)]DDAAFV[S8]F[7F1NapA]Q-NH2
modifications: staple 1-4, 4-11
notes: Stapled peptide composition (olefin metathesis)
B2: I-380 (peptide)
peptide: Ac-[αAllylPro]DA[B5(9)]DDAA[Phe(3-CF3)]Q[S8]F[Bta]Q-NH2
modifications: staple 1-4, 4-11; not fully specified; printed as Ac-PL3-Asp-Ala-B5-Asp-Asp-Ala-Ala-3F3MeF-Gln-S8-Phe-BztA-Gln-NH2
notes: Stapled peptide
B3: I-362 (peptide)
peptide: Ac-[αAllylPro]DA[B5(19)]DDAAFA[S8]H[Bta]Q-NH2
modifications: staple 1-4, 4-11
notes: as for B1
B4: I-378 (peptide)
peptide: Ac-[αAllylPro]DA[B5(9)]DDAA[Phe(3-CF3)]Q[S8]F[Bta]Q-NH2
modifications: staple 1-4, 4-11; not fully specified; printed as Ac-PL3-Asp-Ala-B5-Asp-Asp-Ala-Ala-3F3MeF-Gln-S8-Phe-BztA-Gln-NH2
notes: Stapled peptide
B5: I-379 (peptide)
peptide: Ac-[αAllylPro]DA[B5(9)]DDAA[Phe(3-CF3)]Q[S8]F[Bta]Q-NH2
modifications: staple 1-4, 4-11; not fully specified; printed as Ac-PL3-Asp-Ala-B5-Asp-Asp-Ala-Ala-3F3MeF-Gln-S8-Phe-BztA-Gln-NH2
notes: Stapled peptide
B6: I-394 (peptide)
peptide: Ac-[αAllylPro]DA[B5(9)]DEAAFV[S8][Phe(3,5-F2)][Bta]Q-NH2
modifications: staple 1-4, 4-11
notes: as for B1
B7: I-375 (peptide)
peptide: Ac-[αAllylPro]DA[B5(4)]DDAA[Phe(3-CF3)]A[S8]F[Bta]Q-NH2
modifications: staple 1-4, 4-11; not fully specified; printed as Ac-PL3-Asp-Ala-B5-Asp-Asp-Ala-Ala-3F3MeF-Ala-S8-Phe-BztA-Gln-NH2
notes: Stapled peptide
B8: I-371 (peptide)
peptide: Ac-[αAllylPro]DA[B5(19)]DDAAFA[S8][Phe(3-F)][Bta]Q-NH2
modifications: staple 1-4, 4-11
notes: as for B1
B9: I-374 (peptide)
peptide: Ac-[αAllylPro]DA[B5(4)]DDAA[Phe(3-CF3)]A[S8]F[Bta]Q-NH2
modifications: staple 1-4, 4-11; not fully specified; printed as Ac-PL3-Asp-Ala-B5-Asp-Asp-Ala-Ala-3F3MeF-Ala-S8-Phe-BztA-Gln-NH2
notes: Stapled peptide
B10: I-382 (peptide)
peptide: XDAXDNAAFVXFXQ
modifications: not fully specified; Ac-PL3-Asp-Ala-B5-Asp-Asn-Ala-Ala-Phe-Val-S8-3FF-BztA-Gln-NH2: N-terminal acetyl, C-terminal amide; non-natural PL3(1), B5(4), S8(11), 3FF(12), BztA(13); staples PL3-B5 and B5-S8
notes: Stapled peptide
B11: I-377 (peptide)
peptide: Ac-[αAllylPro]DA[B5(4)]DDAA[Phe(3-CF3)]A[S8]F[Bta]Q-NH2
modifications: staple 1-4, 4-11; not fully specified; printed as Ac-PL3-Asp-Ala-B5-Asp-Asp-Ala-Ala-3F3MeF-Ala-S8-Phe-BztA-Gln-NH2
notes: Stapled peptide
B12: I-381 (peptide)
peptide: XDAXDNAAFVXFXQ
modifications: not fully specified; Ac-PL3-Asp-Ala-B5-Asp-Asn-Ala-Ala-Phe-Val-S8-3FF-BztA-Gln-NH2: N-terminal acetyl, C-terminal amide; non-natural PL3(1), B5(4), S8(11), 3FF(12), BztA(13); staples PL3-B5 and B5-S8
notes: Stapled peptide
B13: I-396 (peptide)
peptide: XDAXDHAAFVXFXQ
modifications: not fully specified; Ac-PL3-Asp-Ala-B5-Asp-His-Ala-Ala-Phe-Val-S8-3FF-BztA-Gln-NH2: N-terminal acetyl, C-terminal amide; non-natural PL3(1), B5(4), S8(11), 3FF(12), BztA(13); staples PL3-B5 and B5-S8
notes: Stapled peptide
B14: I-372 (peptide)
peptide: Ac-[αAllylPro]DA[B5(4)]DEAAFA[S8][Phe(3-F)][Bta]Q-NH2
modifications: staple 1-4, 4-11
notes: as for B1
B15: I-376 (peptide)
peptide: Ac-[αAllylPro]DA[B5(4)]DDAA[Phe(3-CF3)]A[S8]F[Bta]Q-NH2
modifications: staple 1-4, 4-11; not fully specified; printed as Ac-PL3-Asp-Ala-B5-Asp-Asp-Ala-Ala-3F3MeF-Ala-S8-Phe-BztA-Gln-NH2
notes: Stapled peptide

Biological target: T1, B-cat-Halo
Assay: cell-based or functional assay

Binder | NanoBRET Abs IC50
Ac-[αAllylPro]D[tBuAla][B5(4)]D[Phe(3-COOH)]AAFL[PyrS2][Phe(2-CF3)][3Br4FF]S-NH2 (staple 1-4, 4-11) [I-2289] | 9 µM
Ac-[αAllylPro]D[tBuAla][B5(4)]D[Phe(3-COOH)]AAFL[PyrS2][Phe(2-CF3)][Phe(3,4-Me2)]S-NH2 (staple 1-4, 4-11) [I-2293] | 5.7 µM
Ac-[αAllylPro]D[tBuAla][B5(28)]D[Phe(3-COOH)]QAFV[PyrS2][3Thi][34MeF]A-NH2 (staple 1-4, 4-11) [I-2292] | 2.7 µM
Ac-[αAllylPro]D[tBuAla][B5(4)]D[Phe(3-COOH)]AAFL[PyrS2][3Thi][Phe(3,4-Me2)]Q-NH2 (staple 1-4, 4-11) [I-2291] | 4.9 µM
Ac-[αAllylPro]D[tBuAla][B5(4)]D[Phe(3-COOH)]QAFV[PyrS2][3Thi][3Br4FF]A-NH2 (staple 1-4, 4-11) [I-2288] | 6.7 µM
Ac-[αAllylPro]D[tBuAla][B5(4)]D[Phe(3-COOH)]QAFL[PyrS2][Phe(2-CF3)][3Br4FF]A-NH2 (staple 1-4, 4-11) [I-2290] | 7.9 µM

Biological target: T2, full-length beta-Catenin (Uniprot ID …)
Assay: fluorescence polarization competition; 10 nM full-length beta-catenin, competitor 10 nM 5FAM-TCF4(10-53)
Method: The plate was incubated protected from light for 60 minutes at 20° C. prior to read. Reads were performed on a CLARIOstar plate reader (BMG Labtech) in duplicate, and data were fitted to a 1:1 binding model with hill slope using an in-house script. All provided concentrations are final concentrations.

Binder | EC50
B1 | 5 µM
B2 | 0.552 µM
B3 | 3.66 µM
Ac-[αAllylPro]DA[B5(9)]DEAA[23FF]V[S8]F[Bta]Q-NH2 (staple 1-4, 4-11; also: earlier eluting HPLC isomer, E/Z not assigned, Stapled peptide) [I-390] | 3.42 µM
B4 | 1.34 µM
Ac-[αAllylPro]DA[B5(9)]DEAAFV[S8][23FF][Bta]Q-NH2 (staple 1-4, 4-11; also: later eluting HPLC isomer, E/Z not assigned, Stapled peptide) [I-389] | 5 µM
B5 | 1.34 µM
Ac-[αAllylPro]DA[B5(9)]DEAA[23FF]V[S8]F[Bta]Q-NH2 (staple 1-4, 4-11; also: later eluting HPLC isomer, E/Z not assigned, Stapled peptide) [I-391] | 1.91 µM
B6 | 5 µM
B7 | 3.01 µM
B8 | 1.39 µM
B9 | 3.01 µM
Ac-[αAllylPro]DA[B5(19)]DDAAHA[S8]F[Bta]Q-NH2 (staple 1-4, 4-11; also: later eluting HPLC staple isomer, Stapled peptide) [I-364] | 5 µM
B10 | 2.06 µM
B11 | 1.32 µM
Ac-[αAllylPro]DA[B5(19)]DDAAHA[S8]F[Bta]Q-NH2 (staple 1-4, 4-11; also: earlier eluting HPLC staple isomer, Stapled peptide) [I-363] | 5 µM
B12 | 3.65 µM
Ac-[αAllylPro]DA[B5(9)]DEAAFV[S8][23FF][Bta]Q-NH2 (staple 1-4, 4-11; also: earlier eluting HPLC isomer, E/Z not assigned, Stapled peptide) [I-388] | 5 µM
B13 | 3.43 µM
B14 | 2.09 µM
B15 | 1.32 µM
